Experimental data from patent US7109170B2, “Region of factor IXa protease domain that interacts with factor VIIIa and methods therefor” (Saint Louis University, priority 1999, dated 2006).

What was measured:
factor X [1] = target: T1, factor X (Homo sapiens, UniProt P00742); experiment: factor X activation in complete intrinsic Tenase system (IXa, Ca2+, phospholipid, VIIIa); assay type: biochemical; parameters: Normal human plasma factor IX (IXNP) and factor X were isolated as described in Bajaj and Birktoft; from tissue; host or cells: human plasma (factor X); factor VIII obtained from Dr. Leon Hoyer, American Red Cross; settings: 70 pM VIIIa, 0.5 nM IXa, 15 nM X, phospholipid present
T1 sequence (P00742 183-488 limits assumed): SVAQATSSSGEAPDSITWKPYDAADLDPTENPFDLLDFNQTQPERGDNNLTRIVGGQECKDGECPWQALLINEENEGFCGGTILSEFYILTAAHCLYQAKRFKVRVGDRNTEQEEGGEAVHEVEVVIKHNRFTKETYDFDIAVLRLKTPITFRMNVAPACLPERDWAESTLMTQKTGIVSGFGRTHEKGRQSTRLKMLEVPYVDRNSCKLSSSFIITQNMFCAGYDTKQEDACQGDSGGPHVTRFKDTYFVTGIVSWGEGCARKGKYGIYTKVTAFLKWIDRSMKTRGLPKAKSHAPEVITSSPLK
T1 sequence (P00742 41-179 limits assumed): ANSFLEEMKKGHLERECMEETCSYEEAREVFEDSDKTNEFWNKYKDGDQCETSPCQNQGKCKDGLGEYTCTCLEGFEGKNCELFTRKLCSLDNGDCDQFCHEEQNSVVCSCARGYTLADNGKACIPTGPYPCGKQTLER
T1 sequence (P00451 20-759 partner limits assumed): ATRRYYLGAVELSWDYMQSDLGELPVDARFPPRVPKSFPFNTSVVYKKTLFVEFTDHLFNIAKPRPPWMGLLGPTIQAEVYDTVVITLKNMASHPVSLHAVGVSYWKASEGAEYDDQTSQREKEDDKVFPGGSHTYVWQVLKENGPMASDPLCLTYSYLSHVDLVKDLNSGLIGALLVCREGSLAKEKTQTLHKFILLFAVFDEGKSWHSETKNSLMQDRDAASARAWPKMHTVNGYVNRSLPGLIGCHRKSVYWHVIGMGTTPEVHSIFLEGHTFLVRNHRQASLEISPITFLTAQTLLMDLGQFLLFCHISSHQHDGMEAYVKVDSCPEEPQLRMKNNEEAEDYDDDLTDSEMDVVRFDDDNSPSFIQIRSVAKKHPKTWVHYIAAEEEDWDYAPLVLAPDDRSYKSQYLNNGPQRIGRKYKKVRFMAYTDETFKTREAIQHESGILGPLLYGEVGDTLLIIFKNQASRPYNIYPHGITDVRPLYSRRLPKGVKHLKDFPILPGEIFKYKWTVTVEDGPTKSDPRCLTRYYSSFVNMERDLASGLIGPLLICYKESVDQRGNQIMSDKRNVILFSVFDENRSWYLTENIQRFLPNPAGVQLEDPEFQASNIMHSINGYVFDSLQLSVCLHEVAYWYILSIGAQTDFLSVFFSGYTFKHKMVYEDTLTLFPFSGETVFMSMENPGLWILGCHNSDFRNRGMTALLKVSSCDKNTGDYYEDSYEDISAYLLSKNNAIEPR
T1 sequence (P00451 1668-2351 partner limits assumed): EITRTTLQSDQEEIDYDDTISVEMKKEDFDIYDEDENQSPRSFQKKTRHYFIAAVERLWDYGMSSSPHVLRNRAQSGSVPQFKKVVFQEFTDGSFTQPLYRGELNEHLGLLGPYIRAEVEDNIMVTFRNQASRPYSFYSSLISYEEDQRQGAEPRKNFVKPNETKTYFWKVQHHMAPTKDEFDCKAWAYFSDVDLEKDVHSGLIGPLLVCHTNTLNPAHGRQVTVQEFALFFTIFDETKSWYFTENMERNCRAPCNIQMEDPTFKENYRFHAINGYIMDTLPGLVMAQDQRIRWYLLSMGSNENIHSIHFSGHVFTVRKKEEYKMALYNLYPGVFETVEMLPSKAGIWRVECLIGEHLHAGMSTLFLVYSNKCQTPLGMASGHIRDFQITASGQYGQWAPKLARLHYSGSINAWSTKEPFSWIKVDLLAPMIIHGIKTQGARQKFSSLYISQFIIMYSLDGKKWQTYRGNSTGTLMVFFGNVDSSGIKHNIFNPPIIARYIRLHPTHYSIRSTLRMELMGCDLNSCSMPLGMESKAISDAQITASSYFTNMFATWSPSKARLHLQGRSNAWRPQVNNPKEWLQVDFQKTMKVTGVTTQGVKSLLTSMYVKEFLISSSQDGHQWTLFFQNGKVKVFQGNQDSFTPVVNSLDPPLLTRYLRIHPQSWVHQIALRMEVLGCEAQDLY
Protocol: (§1) The ability of each activated mutant to activate factor X in the presence and absence of phospholipid and factor VIIIa was determined as follows. The activation was carried out at 37° C. in a 50 μl reaction volume, in TBS/BSA pH 7.4, for various time periods. At the end of the incubation time period, each reaction mixture received 1 μl of 0.5 M EDTA to stop further generation of factor Xa. A 40 μL aliquot was then added to 0.1 ml quartz cuvette containing S-2222 in 75 μL of TBS/BSA, pH 7.4. The final concentration of S-2222 was 100 μM. The p-nitroaniline release was measured continuously (ΔA405/min) for up to 20 min (Sabharwal et al., 1995 supra; Sabharwal et al., 1997, supra). Factor Xa generated was calculated from a standard curve constructed using factor Xa prepared from insolubilized Russell's viper venom.
(§2) Factor X activation measurements were made under four experimental regimes. In one, Ca^2+ and phospholipid were present. In this system activation was carried out for 5–15 minutes and the concentration of each IXa protein was 20 nM, phospholipid was 25 μM, and factor X was 100 nM. In the second regime, Ca^2+, phospholipid and factor VIIIa were present. […] In the third regime, only Ca^2+ was present. Here, activation was carried out for 2–20 min and concentration of each IXa protein was 400 nM and factor X was 1 μM. Finally, in the fourth regime, Ca^2+ and VIIIa were present. Here, activation was carried out for 15–120 sec and the concentration of each IXa protein was 2 μM, VIIIa was 14 nM, and factor X was 400 nM.
(§3) In all of the above factor X activation experiments, the incubation times chosen were those in which the factor Xa generated was always less than 10 nM. This precautionary measure was taken to prevent activation of factor X by the generated factor Xa (see, e.g., Link. and Castellino, 1982, Arch Biochem. Biophys. 215, 215–221). Further, in those incubation mixtures which contained […], control experiments were also performed in which factor VIIIa was omitted. […] In the presence of factor VIIIa, 10 μM phospholipid was used based upon previous observations (Mathur et al., 1997, supra; van Dieijen et al., 1981, J. Biol. Chem. 256, 3433–3442). The concentrations of factor X selected for each set of reaction conditions are those which are below or at the Km values (van Dieijen et al., supra; Fay and Koshibu, 1998, J Biol. Chem. 273, 19049–19054). In this region of the Michaelis-Menton curve, the rate of formation of factor Xa is proportional to the substrate factor X and therefore to the affinity of the factor IXa enzyme for factor X.
Next, the activation of factor X in a complete intrinsic Tenase system (IXa, Ca^2+, phospholipid, VIIIa) was studied.

factor X [2] = target: T1, factor X; experiment: factor X activation by IXa proteins, Ca2+ and VIIIa, no phospholipid; assay type: biochemical; parameters: Normal human plasma factor IX (IXNP) and factor X were isolated as described in Bajaj and Birktoft; from tissue; host or cells: human plasma (factor X); factor VIII obtained from Dr. Leon Hoyer, American Red Cross; settings: 14 nM VIIIa, 400 nM factor X
Protocol: as §1, §2, §3

IXaV331A: activated factor IX mutant V331A
X-activation rate, PL-plus system (factor X [1]): 0.55 ± 0.04 nM/min | X-activation rate, PL-minus system (factor X [2]): 0.54 ± 0.02 nM/min
